This sample holds only a part of the variants without activity.
How the values were obtained:
biotinyl-Phe-oxazolone = assay: self-aminoacylation, catalytic enhancement (BFO) (fold over background); higher = more active; k-Seq, kA / k0A0; sequences stand for … in GGGAAUGGAUCCACAUCUACGAAUUC…UUCACUGCAGACUUGACGAAGCUG
How it was run: (§1)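 Mutagenized RNA pools with a 21-nt variable region (0.43 μM) reacted with each biotinyl-aminoacyl-oxazolone at 2–1250 μM. Reactions ran in 50 μL HEPES/NaCl/KCl/MgCl2/CaCl2 buffer with 5% acetonitrile, pH 6.9–7.0, for 90 minutes at room temperature. Streptavidin-captured RNA was quantified by triplicate qPCR and Illumina sequencing, and per-sequence fraction reacted was fit to a pseudo-first-order model with 1000 bootstraps. Catalytic enhancement is median kA divided by the uncatalyzed rate, the low-activity peak of a bimodal Gaussian fit.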

biotinyl-Ile-oxazolone = assay: self-aminoacylation, catalytic enhancement (BIO) (fold over background); higher = more active; k-Seq, kA / k0A0; sequences stand for … in GGGAAUGGAUCCACAUCUACGAAUUC…UUCACUGCAGACUUGACGAAGCUG
How it was run: as §1

biotinyl-Met-oxazolone = assay: self-aminoacylation, catalytic enhancement (BMO) (fold over background); higher = more active; k-Seq, kA / k0A0; sequences stand for … in GGGAAUGGAUCCACAUCUACGAAUUC…UUCACUGCAGACUUGACGAAGCUG
How it was run: as §1

biotinyl-Val-oxazolone = assay: self-aminoacylation, catalytic enhancement (BVO) (fold over background); higher = more active; k-Seq, kA / k0A0; sequences stand for … in GGGAAUGGAUCCACAUCUACGAAUUC…UUCACUGCAGACUUGACGAAGCUG
How it was run: as §1

biotinyl-Leu-oxazolone = assay: self-aminoacylation, catalytic enhancement (BLO) (fold over background); higher = more active; k-Seq, kA / k0A0; sequences stand for … in GGGAAUGGAUCCACAUCUACGAAUUC…UUCACUGCAGACUUGACGAAGCUG
How it was run: as §1

biotinyl-Trp-oxazolone = assay: self-aminoacylation, catalytic enhancement (BWO) (fold over background); higher = more active; k-Seq, kA / k0A0; sequences stand for … in GGGAAUGGAUCCACAUCUACGAAUUC…UUCACUGCAGACUUGACGAAGCUG
How it was run: as §1

Sequence “AAGUUUGCUAAUAGCCGCAUG [Fam3.1 aminoacylation ribozyme variant]” has a self-aminoacylation (biotinyl-Phe-oxazolone) of 2, a self-aminoacylation (biotinyl-Ile-oxazolone) of 1.07 and a self-aminoacylation (biotinyl-Met-oxazolone) of 1.12. It also gave a self-aminoacylation (biotinyl-Val-oxazolone) of 1.1, a self-aminoacylation (biotinyl-Leu-oxazolone) of 1.19 and a self-aminoacylation (biotinyl-Trp-oxazolone) of 1.54.

“AAGUUUGCUAAUAGCGGCAAG [Fam3.1 aminoacylation ribozyme variant]” showed a self-aminoacylation (biotinyl-Phe-oxazolone) of 0.964, a self-aminoacylation (biotinyl-Ile-oxazolone) of 0.668 and a self-aminoacylation (biotinyl-Met-oxazolone) of 0.508. The self-aminoacylation (biotinyl-Val-oxazolone) was 0.646, the self-aminoacylation (biotinyl-Leu-oxazolone) was 0.575 and the self-aminoacylation (biotinyl-Trp-oxazolone) was 0.924.

For “AAGUUUGCUAAUAGGCGCGAG [Fam3.1 aminoacylation ribozyme variant]”, the self-aminoacylation (biotinyl-Phe-oxazolone) was 1.2, the self-aminoacylation (biotinyl-Ile-oxazolone) was 1.16 and the self-aminoacylation (biotinyl-Met-oxazolone) was 0.819. It also gave a self-aminoacylation (biotinyl-Val-oxazolone) of 0.9, a self-aminoacylation (biotinyl-Leu-oxazolone) of 0.954 and a self-aminoacylation (biotinyl-Trp-oxazolone) of 1.42.

Sequence “AAGUUUGCUAAUAGGCUCAAG [Fam3.1 aminoacylation ribozyme variant]” has a self-aminoacylation (biotinyl-Phe-oxazolone) of 0.973, a self-aminoacylation (biotinyl-Ile-oxazolone) of 0.664 and a self-aminoacylation (biotinyl-Met-oxazolone) of 0.493. For the same sequence, the self-aminoacylation (biotinyl-Val-oxazolone) was 0.774, the self-aminoacylation (biotinyl-Leu-oxazolone) was 0.715 and the self-aminoacylation (biotinyl-Trp-oxazolone) was 0.535.

In the case of “AAGUUUGCUAAUAGUAGCAAG [Fam3.1 aminoacylation ribozyme variant]”, the self-aminoacylation (biotinyl-Phe-oxazolone) was 1.22, the self-aminoacylation (biotinyl-Ile-oxazolone) was 1.04 and the self-aminoacylation (biotinyl-Met-oxazolone) was 1.02. For the same sequence, the self-aminoacylation (biotinyl-Val-oxazolone) was 0.993, the self-aminoacylation (biotinyl-Leu-oxazolone) was 0.95 and the self-aminoacylation (biotinyl-Trp-oxazolone) was 0.96.

For “AAGUUUGCUAAUAGUAGCUAG [Fam3.1 aminoacylation ribozyme variant]”, the self-aminoacylation (biotinyl-Phe-oxazolone) was 1.05, the self-aminoacylation (biotinyl-Ile-oxazolone) was 0.958 and the self-aminoacylation (biotinyl-Met-oxazolone) was 1.28. It also gave a self-aminoacylation (biotinyl-Val-oxazolone) of 0.988, a self-aminoacylation (biotinyl-Leu-oxazolone) of 0.639 and a self-aminoacylation (biotinyl-Trp-oxazolone) of 1.14.

“AAGUUUGCUAAUAGUAUCAAG [Fam3.1 aminoacylation ribozyme variant]” showed a self-aminoacylation (biotinyl-Phe-oxazolone) of 1.64, a self-aminoacylation (biotinyl-Ile-oxazolone) of 1 and a self-aminoacylation (biotinyl-Met-oxazolone) of 1.22. For the same sequence, the self-aminoacylation (biotinyl-Val-oxazolone) was 0.928, the self-aminoacylation (biotinyl-Leu-oxazolone) was 0.714 and the self-aminoacylation (biotinyl-Trp-oxazolone) was 0.998.

“AAGUUUGCUAAUAGUCACAAG [Fam3.1 aminoacylation ribozyme variant]” gave a self-aminoacylation (biotinyl-Phe-oxazolone) of 12.3, a self-aminoacylation (biotinyl-Ile-oxazolone) of 1.47 and a self-aminoacylation (biotinyl-Met-oxazolone) of 1.45. The self-aminoacylation (biotinyl-Val-oxazolone) was 1.35, the self-aminoacylation (biotinyl-Leu-oxazolone) was 1.21 and the self-aminoacylation (biotinyl-Trp-oxazolone) was 4.08.

In the case of “AAGUUUGCUAAUAGUCACAAU [Fam3.1 aminoacylation ribozyme variant]”, the self-aminoacylation (biotinyl-Phe-oxazolone) was 1.14, the self-aminoacylation (biotinyl-Ile-oxazolone) was 1.18 and the self-aminoacylation (biotinyl-Met-oxazolone) was 1.18. For the same sequence, the self-aminoacylation (biotinyl-Val-oxazolone) was 1.19, the self-aminoacylation (biotinyl-Leu-oxazolone) was 0.82 and the self-aminoacylation (biotinyl-Trp-oxazolone) was 1.11.

“AAGUUUGCUAAUAGUCAGAAG [Fam3.1 aminoacylation ribozyme variant]” was tested, and the self-aminoacylation (biotinyl-Phe-oxazolone) was 2.61, the self-aminoacylation (biotinyl-Ile-oxazolone) was 0.943 and the self-aminoacylation (biotinyl-Met-oxazolone) was 1.01. For the same sequence, the self-aminoacylation (biotinyl-Val-oxazolone) was 0.937, the self-aminoacylation (biotinyl-Leu-oxazolone) was 0.808 and the self-aminoacylation (biotinyl-Trp-oxazolone) was 2.22.

“AAGUUUGCUAAUAGUCCCACG [Fam3.1 aminoacylation ribozyme variant]” was tested, and the self-aminoacylation (biotinyl-Phe-oxazolone) was 0.69, the self-aminoacylation (biotinyl-Ile-oxazolone) was 0.727 and the self-aminoacylation (biotinyl-Met-oxazolone) was 0.931. For the same sequence, the self-aminoacylation (biotinyl-Val-oxazolone) was 0.679, the self-aminoacylation (biotinyl-Leu-oxazolone) was 0.838 and the self-aminoacylation (biotinyl-Trp-oxazolone) was 0.714.

With “AAGUUUGCUAAUAGUCCCAUG [Fam3.1 aminoacylation ribozyme variant]” the self-aminoacylation (biotinyl-Phe-oxazolone) was 0.885, the self-aminoacylation (biotinyl-Ile-oxazolone) was 0.978 and the self-aminoacylation (biotinyl-Met-oxazolone) was 0.887. For the same sequence, the self-aminoacylation (biotinyl-Val-oxazolone) was 1.13, the self-aminoacylation (biotinyl-Leu-oxazolone) was 0.89 and the self-aminoacylation (biotinyl-Trp-oxazolone) was 1.19.

“AAGUUUGCUAAUAGUCCCCAG [Fam3.1 aminoacylation ribozyme variant]” was tested, and the self-aminoacylation (biotinyl-Phe-oxazolone) was 1.27, the self-aminoacylation (biotinyl-Ile-oxazolone) was 1 and the self-aminoacylation (biotinyl-Met-oxazolone) was 1.01. The self-aminoacylation (biotinyl-Val-oxazolone) was 0.901, the self-aminoacylation (biotinyl-Leu-oxazolone) was 0.928 and the self-aminoacylation (biotinyl-Trp-oxazolone) was 1.69.

In the case of “AAGUUUGCUAAUAGUCGAAAG [Fam3.1 aminoacylation ribozyme variant]”, the self-aminoacylation (biotinyl-Phe-oxazolone) was 17.9, the self-aminoacylation (biotinyl-Ile-oxazolone) was 1.38 and the self-aminoacylation (biotinyl-Met-oxazolone) was 1.47. For the same sequence, the self-aminoacylation (biotinyl-Val-oxazolone) was 1.22, the self-aminoacylation (biotinyl-Leu-oxazolone) was 1.14 and the self-aminoacylation (biotinyl-Trp-oxazolone) was 5.4.

“AAGUUUGCUAAUAGUCGCAAU [Fam3.1 aminoacylation ribozyme variant]” was tested, and the self-aminoacylation (biotinyl-Phe-oxazolone) was 1.68, the self-aminoacylation (biotinyl-Ile-oxazolone) was 1.42 and the self-aminoacylation (biotinyl-Met-oxazolone) was 1.25. It also gave a self-aminoacylation (biotinyl-Val-oxazolone) of 1.26, a self-aminoacylation (biotinyl-Leu-oxazolone) of 1.19 and a self-aminoacylation (biotinyl-Trp-oxazolone) of 1.22.

“AAGUUUGCUAAUAGUCGCAUA [Fam3.1 aminoacylation ribozyme variant]” gave a self-aminoacylation (biotinyl-Phe-oxazolone) of 1.58, a self-aminoacylation (biotinyl-Ile-oxazolone) of 1.21 and a self-aminoacylation (biotinyl-Met-oxazolone) of 0.936. For the same sequence, the self-aminoacylation (biotinyl-Val-oxazolone) was 1.22, the self-aminoacylation (biotinyl-Leu-oxazolone) was 0.954 and the self-aminoacylation (biotinyl-Trp-oxazolone) was 1.23.

Sequence “AAGUUUGCUAAUAGUCGCGAC [Fam3.1 aminoacylation ribozyme variant]” has a self-aminoacylation (biotinyl-Phe-oxazolone) of 1.05, a self-aminoacylation (biotinyl-Ile-oxazolone) of 0.944 and a self-aminoacylation (biotinyl-Met-oxazolone) of 1. The self-aminoacylation (biotinyl-Val-oxazolone) was 0.909, the self-aminoacylation (biotinyl-Leu-oxazolone) was 0.907 and the self-aminoacylation (biotinyl-Trp-oxazolone) was 1.19.

“AAGUUUGCUAAUAGUCGCGGG [Fam3.1 aminoacylation ribozyme variant]” gave a self-aminoacylation (biotinyl-Phe-oxazolone) of 19.6, a self-aminoacylation (biotinyl-Ile-oxazolone) of 4.43 and a self-aminoacylation (biotinyl-Met-oxazolone) of 4.13. The self-aminoacylation (biotinyl-Val-oxazolone) was 3.77, the self-aminoacylation (biotinyl-Leu-oxazolone) was 4.5 and the self-aminoacylation (biotinyl-Trp-oxazolone) was 4.82.

“AAGUUUGCUAAUAGUCGCUAA [Fam3.1 aminoacylation ribozyme variant]” was tested, and the self-aminoacylation (biotinyl-Phe-oxazolone) was 1.96, the self-aminoacylation (biotinyl-Ile-oxazolone) was 1.33 and the self-aminoacylation (biotinyl-Met-oxazolone) was 1.13. It also gave a self-aminoacylation (biotinyl-Val-oxazolone) of 1.21, a self-aminoacylation (biotinyl-Leu-oxazolone) of 1.2 and a self-aminoacylation (biotinyl-Trp-oxazolone) of 1.53.

Sequence “AAGUUUGCUAAUAGUCGCUCG [Fam3.1 aminoacylation ribozyme variant]” has a self-aminoacylation (biotinyl-Phe-oxazolone) of 0.809, a self-aminoacylation (biotinyl-Ile-oxazolone) of 0.706 and a self-aminoacylation (biotinyl-Met-oxazolone) of 0.815. For the same sequence, the self-aminoacylation (biotinyl-Val-oxazolone) was 0.657, the self-aminoacylation (biotinyl-Leu-oxazolone) was 0.647 and the self-aminoacylation (biotinyl-Trp-oxazolone) was 0.853.

“AAGUUUGCUAAUAGUCGUUAG [Fam3.1 aminoacylation ribozyme variant]” was tested, and the self-aminoacylation (biotinyl-Phe-oxazolone) was 2.27, the self-aminoacylation (biotinyl-Ile-oxazolone) was 0.822 and the self-aminoacylation (biotinyl-Met-oxazolone) was 0.676. It also gave a self-aminoacylation (biotinyl-Val-oxazolone) of 1.07, a self-aminoacylation (biotinyl-Leu-oxazolone) of 0.801 and a self-aminoacylation (biotinyl-Trp-oxazolone) of 1.05.

— the supplement of paper PMC9233669
